The values that follow come from patent US20080138280A1, “Composition and Methods For Inhibiting Cell Survival” (The Cleveland Clinic Foundation, priority 2003, published 2008).

Assay [1] concerns phospho-IκBα in A375 cells. As to the kind of experiment: Western blot analysis of IκBα phosphorylation. It counts as cell-based, human. To be noted: pre-treatment 100 μM, Apo2L/TRAIL 100 ng/ml. The protocol: Gel Electrophoresis and Immunoblot analyses. Please see FIG. 4. Whole cell lysates were prepared in 1× lysis buffer (50 mM Tris-Cl, pH 8.0, 1% Triton×100, 10% glycerol, 1 mM EDTA, 250 mM NaCl, 1 mM DTT, 1 mM PMSF, 10 μg/ml aprotinin, 10 μg/ml leupeptin, and 10 μg/ml pepstatin) for subsequent immunoblotting studies. The SDS-PAGE was conducted by using the Laemmli buffer system and 12% polyacrylamide gels. Proteins were transferred onto PVDF membranes by the semidry method (Trans Blot SD, BioRad, Hercules, Calif.). Binding of the primary and secondary antibodies was performed according to standard protocols. Membranes were immunoblotted with pAb to caspase-3, caspase-8, XIAP (BD-Pharmingen, San Diego, Calif.), PARP (BioMOL, Plymouth Meeting, Pa.), cIAP-1, FLIP, pIκBα and IκBα (Cell Signaling, Beverly, Mass.) followed by incubation with HRP conjugated secondary antibodies (Pierce, Rockford, Ill.). Immunoreactive bands were visualized by using enhanced chemiluminescence (Perkin Elmer, Boston, Mass.). Equal protein loading was confirmed by reprobing with monoclonal anti-actin antibody (Sigma Chemicals Co, St. Louis, Mo.). All immunoblots in this study were repeated 3 times with reproducible results.
NO-Cbl treatment affected the phosphorylation state of IκBα, the prototypic inhibitor of NF-κB. Western blot analysis was performed to assess levels of phospho-IκBα and IκBα. FIG. 6 is a Western blot analysis of IκB levels and IκBα phosphorylation. IκBα and phospho-IκBα protein levels were determined in A375 whole cell lysates. […] NO-Cbl, NOC-18, and SNAP pre-treatment all inhibited Apo2L/TRAIL-induced IκBα phosphorylation.

Assay [2] deals with NF-κB DNA binding activity. Nature of the assay: Electrophoretic mobility shift assay (EMSA) of NF-κB DNA binding activity, A375 cells. The assay is classed as cell-based, human. The note with it: NO donor 100 μM pre-treatment 16 h, Apo2L/TRAIL 100 ng/ml 1 h. On the procedure: Electrophoretic mobility shift assay (EMSA). These methods apply generally to FIGS. 5, 9-10 which employ EMSA analysis. In FIG. 5, A375 cells were treated with NO donors (NO-Cbl, NOC-18, SNAP, 100 μM, 16 h), or with Apo2L/TRAIL (100 ng/ml) or TNF-α (20 ng/ml) for 1 h, or with the combination of NO donors (16 h) followed by Apo2L/TRAIL or TNF-α (1 h). Plates were washed twice with ice-cold PBS. Cells were resuspended in cold 1× lysis buffer (20 mM HEPES, 20 mM NaF, 1 mM Na3VO4, 1 mM EDTA, 1 mM DTT, 100 mM NaCl, 10% glycerol and protease inhibitors) and incubated on ice for 30 min followed by centrifugation at 4° C. at 10,000 rpm for 10 min. Supernatants were transferred to fresh tubes and protein concentrations were assessed using the Bradford method (Bio-RAD protein assay, BioRad, Hercules, Calif.). The NF-κB consensus binding sequence (5′[…] 3′) from the IFN-β gene promoter was end-labeled with γ^32P dATP ([…]) using T4 polynucleotide kinase. DNA binding reactions were performed in 20 μl volume containing 10 μg protein, 20 mM HEPES, 10 mM KCl, 0.1% NP-40, 0.5 mM DIT and 10% glycerol. The binding reaction was performed for 20 min at 25° C. Complexes were separated from the free probe on 6% non-denaturing polyacrylamide gels in 0.5×TBE buffer at 200 V for 2 h. Gels were dried and exposed to film.
Inhibition of NF-κB survival signaling by NO-Cbl. Because NF-κB is an important cell survival regulator, we examined the effects of NO-Cbl on NF-κB DNA binding activity. The NF-κB binding sequence from the IFN-β gene promoter was used as a probe to assess DNA binding activity. A375 cells were treated with TNF-α (20 ng/ml), Apo2L/TRAIL (100 ng/ml) or NO-Cbl (100 μM). FIG. 5, illustrates an Electrophoretic Mobility Shift Assay (EMSA) of NF-κB DNA binding activity. Pre-treatment of A375 cells with NO-Cbl inhibited the NF-κB DNA binding activity induced by Apo2L/TRAIL and TNF-α. […] NF-κB-luc transfected A375 cells were pre-treated with NO-Cbl followed by Apo2L/TRAIL or TNF-α. […] Cell lysates were analyzed for NF-κB-luc reporter activity. […]
For orientation: Mobility shift assays separate free from complexed probe on a gel.

The subject of assay [3] is NF-κB signaling. Nature of the assay: Inhibition of NF-κB signaling by NO donors. The note with it: summary statement. The assay is classed as cell-based. From the text: SNAP, SNP (nitroprusside) and NOC-18 inhibit NF-κB signaling.
For assay [4], the system named is A375 cells. As to the kind of experiment: TUNEL apoptosis assay. The assay is classed as cell-based, human. To be noted: single agent, 36 h; NO-Cbl 100 μM or Apo2L/TRAIL 100 ng/ml. On the procedure:
TUNEL assay. Please see FIG. 3. A375 cells were cultured for 36 h and exposed to various treatments (control, NO-Cbl, Apo2L/TRAIL and NO-Cbl+Apo2L/TRAIL. Apoptotic cells were detected by TUNEL (terminal deoxynucleotidyltransferase-mediated dUTP-biotin nick end-labeling) staining using a commercially available kit (APO-BRDU kit, BD-Pharmingen, San Diego, Calif.). Cells were processed according to the manufacturer's recommended protocol. The percentage of FITC-positive cells was analyzed by fluorescent activated cell scanning (FACS, Becton Dickinson, Facsvantage, San Diego, Calif.).
Cell line A375 has a defect in endogenous TRAIL gene induction therefore, additive cellular responses from exogenous TRAIL/Apo2L were avoided. TUNEL assays of A375 cells treated in vitro with NO-Cbl, Apo2L/TRAIL, or the combination were performed. FIG. 3 illustrates a TUNEL apoptosis assay in accordance with the present invention. A375 cells were treated with NO-Cbl, Apo-2L/TRAIL, and the combination. […] The highest levels of apoptosis were observed when cells were pre-treated with NO-Cbl followed by Apo2L/TRAIL treatment. Treatment for 36 h with NO-Cbl (100 μM) or Apo2L/TRAIL (100 ng/ml) induced 6.2% and 5.4% TUNEL-positive cells, respectively.

The subject of assay [5] is A375 melanoma xenografts. Nature of the assay: Growth of subcutaneous A375 xenografts in nude mice. It counts as in vivo. From the text:
In vivo experiments. Please see FIG. 2. The Institutional Animal Care and Use Committee at the Cleveland Clinic Foundation approved all procedures for animal experimentation. Five week-old NCR male athymic nude homozygous (nu/nu) mice (Taconic, Germantown, N.Y.) were inoculated with A375 tumors. Each experimental group contained 4 mice, each mouse bearing two tumors, on opposite flanks. There were four experimental groups (untreated, single agents, and the combination). Cultured tumor cells (4×10^6) were inoculated into flanks in the mid-axillary line. NO-Cbl was given twice daily (50 mg/kg s.c.) and recombinant trimeric Apo2L/TRAIL (50 mg/kg s.c.) was administered every other day, starting on day 2. Tumor volume was measured three times a week using the formula for a prolate spheroid: (4/3) πab^2 where 2a=major axis, 2b=minor axis. Formalin-fixed sections were processed by the Cleveland Clinic Histology Core. Sections were stained with hematoxylin and eosin and evaluated for pathologic changes in a blinded fashion.
Anti-tumor effects of NO-Cbl, Apo2L/TRAIL, and the combination in vivo. To test drug activity in vivo, subcutaneous A375 xenografts were inoculated in nude mice. FIG. 2. illustrates the effect of NO-Cbl, Apo2L/TRAIL and the combination on the growth of A375 melanoma xenografts. NCR male athymic nude (nulnu) mice (n=4 per group) were injected subcutaneously with 4×10^6 A375 cells. Drug treatments began on day two (2) after injection of tumor cells. NO-Cbl was administered twice daily for the duration of the study. Apo2L/TRAIL was administered every other day. The control mice received phosphate buffered saline. The tumor volume was measured three times per week. Data points represent the mean tumor volume (in cubic mm)±SEM. Daily drug treatments began on day 2 following implantation, at which time tumors were both visible and palpable. Untreated control tumors grew unimpeded. After 25 days, the tumors from mice treated with NO-Cbl were 67.4% smaller than the control tumors (p≦0.0002) and tumors from mice treated with Apo2L/TRAIL were 89.4% smaller than the control tumors (p≦0.00001). The tumors from mice treated with the combination of NO-Cbl and Apo2L/TRAIL were 95.7% smaller than the control tumors (p≦0.000005).

Assay [6] concerns CMN1 (normal melanocytes). As to the kind of experiment: Sulforhodamine B cell growth assay, normal cells. It counts as cell-based, human. On the procedure: (§1) Cell Culture treatments. Cells were maintained in RPMI or DMEM (Mediatech, Herndon, Va.) containing 5% fetal bovine serum (Hyclone, Logan, Utah) and 1% Antibiotic-Antimycotic (GEBCO, Invitrogen Carlsbad, Calif.) as recommended per the American Type Culture Collection media protocol for each cell line. Cells were maintained in 5% CO2 at 37° C. in a humidified tissue culture incubator. Primary non-tumorigenic […] cell lines (DMN-1 and CMN-1), and human foreskin fibroblasts (HFF; CCF, Cleveland, Ohio) were cultured in DMEM-F12 medium supplemented with 10% FBS. Cells were confirmed as mycoplasma free.
(§2) Sulforhodamine B Cell Growth Assay. Cells were harvested with 0.5% trypsin/0.53 mM EDTA, washed with PBS and resuspended in media containing 10% FBS. Cells were plated in 96-well plates in 0.2-ml aliquots. Cells were allowed to adhere to the plate for 4 h and then NO-Cbl was added in different concentrations to the assay plate. A minimum of four were performed for each treatment. After 16 h, various chemotherapeutic agents including cytokines were added at different concentrations. Growth was monitored by the sulforhodamine B (SRB; Sigma Chemical, St. Louis, Mo.) colorimetric assay. After 36 h, the medium was removed, and the cells were fixed with 10% trichloroacetic acid and stained with SRB. Bound dye was eluted from the cells with 10 mM Tris-HCl (pH 10.5) and absorbance was measured at 570 nm using a Lab systems Multiskan RC 96-well plate reader (Lab Systems Multiscan RC, Thermo Lab Systems, Franklin, Mass.). To quantify the growth of the cells, the experimental absorbance values (Aexp) were compared with initial absorbance readings representing the starting cell numbers (Aini). To determine the starting cell number, an additional 96-well plate was seeded with cells and fixed at the beginning of the experiment. After 5 days growth, the untreated control cells and drug treated cells were fixed and stained with SRB. The absorbances derived from the initial plate and from the untreated cells at the end of the growth period (Afin) were defined as 0% and 100% growth, respectively. The percentage control growth (100%×[Aexp−Aini]/[Afin−Aini]) is expressed as a percentage of untreated controls.
(§3) Anti-tumor effects of NO-Cbl, Apo2L/TRAIL, and the combination iii vitro. NO-Cbl enhances the anti-cellular effects of Apo2L/TRAIL against malignant Apo2L/TRAIL-resistant cell lines. First the antiproliferative effects of three melanoma lines A375, WM9, and WM3211 (previously reported to be resistant to Apo2L/TRAIL) were measured. Although Apo2L/TRAIL was used as the chemotherapeutic agents, a wide range of anti-cancer drugs and techniques would be enhanced by the NO based cobalamin compounds due to their effective inhibition of the cell survival mechanism. Such other chemotherapeutic agents are tested in the following examples. […] The SRB antiproliferative assay, used by the National Cancer Institute (NCI) to evaluate new chemotherapeutic agents was used herein. Median effect analysis was used to analyze drug interactions between NO-Cbl and Apo2L/TRAIL. Cells were pre-treated with NO-Cbl for 16 h followed by Apo2L/TRAIL for 24 h.
(§4) The effects of nitrosylcobalamin (NO-Cbl), Apo2L/TRAIL, and the combination on the proliferation of melanoma cell lines A375, WM9, and WM3211 and normal cell lines CMN1, DMN1, and fibroblasts were observed. Cells were treated with NO-Cbl, Apo2L/TRAIL, or pre-treated with NO-Cbl followed by Apo2L/TRAIL for three days, and growth was measured by the colorimetric sulforhodamine B assay. Data points were generated to represent the mean of four replicates±standard error of the mean (SEM). Synergy between NO-Cbl and Apo2L/TRAIL was determined by median effect analysis, (combination index >1 indicates antagonism, =1 indicates additivity, and <1 indicates synergy). The combination index is represented in FIG. 1 and as the combination index observed at the specified concentrations. […]

The test system of assay [7] is DMN1 (normal melanocytes). As to the kind of experiment: Sulforhodamine B cell growth assay, normal cells. The assay is classed as cell-based, human. The protocol:
as §1, §2, §3, §4

Assay [8] relates to normal fibroblasts. Nature of the assay: Sulforhodamine B cell growth assay, normal cells. The assay is classed as cell-based, human. The protocol:
as §1, §2, §3, §4

On to `CC(=O)NC(C(=O)O)C(C)(C)SN=O` (racemic) [SNAP, S-nitroso-N-acetyl-D,L-penicillamine, reference compound], for which, in assay [1], the “IκBα phosphorylation induced by Apo2L/TRAIL” value was “inhibited”. In assay [2], the “NF-κB DNA binding activity induced by Apo2L/TRAIL” value is listed as “inhibited”. Also, the NF-κB signaling result in assay [3] is on record as “inhibit”.

B1: Apo2L/TRAIL: tumor necrosis factor-related apoptosis-inducing ligand; trimeric recombinant human Apo2L/TRAIL (Genentech) (protein, UniProt P50591 1-281, looked up)
Tumor necrosis factor ligand …: MAMMEVQGGPSLGQTCVLIVIFTVLLQSLCVAVTYVYFTNELKQMQDKYSKSGIACFLKEDDSYWDPNDEESMNSPCWQVKWQLRQLVRKMILRTSEETISTVQEKQQNISPLVRERGPQRVAAHITGTRGRSNTLSSPNSKNEKALGRKINSWESSRSGHSFLSNLHLRNGELVIHEKGFYYIYSQTYFRFQEEIKENTKNDKQMVQYIYKYTSYPDPILLMKSARNSCWSKDAEYGLYSIYQGGIFELKENDRIFVSVTNEHLIDMDHEASFFGAFLVG
For the molecule B1, the TUNEL-positive cells in assay [4] stood at 5.4%. Further, in assay [5] (A375 xenografts, nude mice), the tumor regression entry was “Tumor regression was observed”. The “tumors smaller than the control tumors” value in assay [5] (after 25 days, NO-Cbl 50 mg/kg s.c. twice daily, Apo2L/TRAIL 50 mg/kg s.c. every other day, from day 2) is on record as 89.4%. The “antiproliferative effect on normal cells” value in assay [6], in assay [7] and in assay [8] was “completely resistant” each time.
